Assay results published in IntAct's records for PubMed 17157788.

Target: aatf_human AATF (UniProt Q9NY61)
Sequence (Q9NY61 whole entry): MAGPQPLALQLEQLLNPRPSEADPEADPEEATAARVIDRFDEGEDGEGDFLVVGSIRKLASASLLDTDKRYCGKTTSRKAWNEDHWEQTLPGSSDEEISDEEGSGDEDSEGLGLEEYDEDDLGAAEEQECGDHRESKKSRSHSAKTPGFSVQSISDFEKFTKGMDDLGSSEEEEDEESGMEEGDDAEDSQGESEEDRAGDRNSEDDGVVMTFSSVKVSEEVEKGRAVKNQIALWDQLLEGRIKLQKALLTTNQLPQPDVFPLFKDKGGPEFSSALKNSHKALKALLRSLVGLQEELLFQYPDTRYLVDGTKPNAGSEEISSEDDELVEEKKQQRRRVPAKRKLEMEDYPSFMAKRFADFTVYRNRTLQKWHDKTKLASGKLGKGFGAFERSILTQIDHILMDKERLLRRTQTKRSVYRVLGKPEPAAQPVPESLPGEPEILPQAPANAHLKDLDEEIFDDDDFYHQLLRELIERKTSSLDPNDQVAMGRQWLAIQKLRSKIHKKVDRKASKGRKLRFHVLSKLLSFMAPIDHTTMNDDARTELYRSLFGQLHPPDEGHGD

“Serine/threonine-protein kinase ATR (Homo sapiens), Q13535 K2327R” was tested, and the “effect of a mutation on the interaction” value was “disrupting interaction”.
